Laboratory results published in publication PMC4537179.

What was measured:
Assay in all cases: SPR
Max(L) = Max(L) (UniProt P61244 1-160)
c-Myc bHLH-ZIP = c-Myc bHLH-ZIP (Homo sapiens (human), UniProt P01106-1 353-437)
Max(S) = Max(S) (UniProt P61244-2 1-151)

c-Myc bHLH-ZIP, sequence (P01106 368-452): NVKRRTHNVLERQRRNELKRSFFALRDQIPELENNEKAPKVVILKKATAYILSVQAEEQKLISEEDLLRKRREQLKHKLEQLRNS

B1: biotinylated E-box oligonucleotide (dsDNA)
DNA 1: TGAAGCAGACCACGTGGTCGTCTTCA
DNA 2: TGAAGACGACCACGTGGTCTGCTTCA
- binding result (Max(L)): binds
- binding result (c-Myc bHLH-ZIP): no binding
- binding result (Max(S)): no binding
